Measurements as given in patent publication US11242370B2, “Neuregulin-4 compounds and methods of use” (Eli Lilly and Company, priority 2019, dated 2022).
Marks after values point to notes of the source that are not given here.

Legend:
rat HER2/HER4 = target: T1, rat HER2/HER4 (Rattus norvegicus, UniProt Q62956); experiment: Rat HER2/HER4 phospho-ERK 1/2 assay, purified proteins, CHO-K1 cells; assay type: cell-based; settings: for % Maximal NRG1 activity: maximal signal relative to native human NRG1 per plate; for EC50: purified proteins, phospho-ERK1/2
T1 construct: expressed in transfected cells
T1 sequence (Q62956 26-1308): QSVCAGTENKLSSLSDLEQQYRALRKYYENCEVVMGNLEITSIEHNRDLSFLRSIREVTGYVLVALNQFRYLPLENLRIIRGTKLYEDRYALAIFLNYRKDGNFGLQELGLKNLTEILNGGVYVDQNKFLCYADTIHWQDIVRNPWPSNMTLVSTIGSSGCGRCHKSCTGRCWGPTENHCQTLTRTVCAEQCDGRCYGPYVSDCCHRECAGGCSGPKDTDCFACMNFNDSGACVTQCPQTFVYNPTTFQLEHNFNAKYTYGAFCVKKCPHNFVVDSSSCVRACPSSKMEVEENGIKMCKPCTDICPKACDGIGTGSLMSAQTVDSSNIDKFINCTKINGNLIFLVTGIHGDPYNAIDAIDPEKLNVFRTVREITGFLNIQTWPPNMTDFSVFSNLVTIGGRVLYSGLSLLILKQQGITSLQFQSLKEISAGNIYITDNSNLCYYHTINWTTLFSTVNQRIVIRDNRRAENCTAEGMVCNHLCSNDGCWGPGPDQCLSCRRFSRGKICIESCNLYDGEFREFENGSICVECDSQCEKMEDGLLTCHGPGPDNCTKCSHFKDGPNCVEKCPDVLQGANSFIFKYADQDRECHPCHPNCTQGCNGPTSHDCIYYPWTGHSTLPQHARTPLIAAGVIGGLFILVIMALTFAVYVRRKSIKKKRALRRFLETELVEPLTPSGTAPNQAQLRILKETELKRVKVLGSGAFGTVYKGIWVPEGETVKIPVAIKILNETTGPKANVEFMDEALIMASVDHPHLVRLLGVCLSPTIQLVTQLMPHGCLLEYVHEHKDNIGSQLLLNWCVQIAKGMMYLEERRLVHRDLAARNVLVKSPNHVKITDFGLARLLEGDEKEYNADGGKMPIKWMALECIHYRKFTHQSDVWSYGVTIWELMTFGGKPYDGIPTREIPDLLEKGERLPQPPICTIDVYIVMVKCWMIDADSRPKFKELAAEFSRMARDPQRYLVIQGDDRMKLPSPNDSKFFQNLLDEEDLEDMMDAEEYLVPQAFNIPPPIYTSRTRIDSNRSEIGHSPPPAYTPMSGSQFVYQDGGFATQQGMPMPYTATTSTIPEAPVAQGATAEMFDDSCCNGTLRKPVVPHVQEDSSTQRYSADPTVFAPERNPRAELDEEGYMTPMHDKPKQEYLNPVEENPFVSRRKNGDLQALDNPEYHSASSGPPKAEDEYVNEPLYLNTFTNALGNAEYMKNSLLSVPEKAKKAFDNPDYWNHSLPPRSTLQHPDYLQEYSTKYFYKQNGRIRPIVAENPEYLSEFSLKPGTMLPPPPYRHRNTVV
T1 sequence (P06494 23-1257 partner): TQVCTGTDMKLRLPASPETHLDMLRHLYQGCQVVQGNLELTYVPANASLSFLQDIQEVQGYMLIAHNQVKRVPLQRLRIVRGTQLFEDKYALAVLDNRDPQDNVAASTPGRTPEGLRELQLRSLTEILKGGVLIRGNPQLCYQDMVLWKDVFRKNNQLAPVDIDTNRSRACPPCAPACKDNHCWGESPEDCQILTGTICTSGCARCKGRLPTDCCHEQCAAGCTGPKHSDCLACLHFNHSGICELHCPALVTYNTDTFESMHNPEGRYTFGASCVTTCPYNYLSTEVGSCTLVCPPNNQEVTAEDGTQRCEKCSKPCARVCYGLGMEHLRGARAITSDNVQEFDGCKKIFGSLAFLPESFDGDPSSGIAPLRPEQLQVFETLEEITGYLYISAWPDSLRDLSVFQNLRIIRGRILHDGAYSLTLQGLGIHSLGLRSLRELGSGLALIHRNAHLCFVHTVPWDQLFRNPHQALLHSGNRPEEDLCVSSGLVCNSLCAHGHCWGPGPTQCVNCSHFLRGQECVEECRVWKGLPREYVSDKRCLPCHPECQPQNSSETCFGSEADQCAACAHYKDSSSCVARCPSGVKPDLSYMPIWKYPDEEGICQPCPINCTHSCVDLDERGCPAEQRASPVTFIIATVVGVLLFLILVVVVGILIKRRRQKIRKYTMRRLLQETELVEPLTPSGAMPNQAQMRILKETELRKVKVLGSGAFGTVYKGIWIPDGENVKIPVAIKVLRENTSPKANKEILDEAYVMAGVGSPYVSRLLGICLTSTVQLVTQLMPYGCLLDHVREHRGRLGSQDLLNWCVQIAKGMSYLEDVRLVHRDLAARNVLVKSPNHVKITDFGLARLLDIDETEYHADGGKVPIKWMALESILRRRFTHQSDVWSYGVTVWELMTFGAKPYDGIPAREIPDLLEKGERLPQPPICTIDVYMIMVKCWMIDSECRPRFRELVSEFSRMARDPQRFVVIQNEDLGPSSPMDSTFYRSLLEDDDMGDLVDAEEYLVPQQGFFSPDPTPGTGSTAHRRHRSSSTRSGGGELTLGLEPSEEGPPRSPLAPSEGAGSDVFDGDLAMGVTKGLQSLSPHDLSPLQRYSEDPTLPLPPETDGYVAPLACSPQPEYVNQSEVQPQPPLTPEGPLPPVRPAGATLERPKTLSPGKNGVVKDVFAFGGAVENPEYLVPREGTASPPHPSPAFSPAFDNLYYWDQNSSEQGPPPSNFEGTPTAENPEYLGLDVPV
Description: A cell based assay utilizing CHO-K1 cells overexpressing human or rat HER receptors is used to determine activity of NRG4 compounds. CHO-K1 cells (ATCC) are grown in DMEM-F12 3:1 with 5% FBS with 20 mM HEPES, 40 μg/mL L-Proline, lx antibiotics and were split 1:5 every 2-3 days with TripLE Express (Gibco). Cells are transfected with plasmid DNA encoding HER receptors in pairs (hHER2-3, hHER2-4, rHER2-3 and rHER2-4) with Fugene 6 (Promega) according to the manufacturer's instructions. […] Transfected cells are selected with Puromycin (12 ug/ml) and Hygromycin (1 mg/ml) for 3-4 weeks and clonal lines are obtained by limited dilution cloning into 96 well plates. Clonal lines are selected by appropriate gene expression of HER2, HER3 or HER4 by Taqman method. Lines with appropriate receptor expression are confirmed by NRG1 induced phospho-ERK 1/2 responses. Clones are grown up, harvested, aliquoted into cryovials and then frozen under liquid nitrogen for long-term storage.
A phospho-ERK1/2 activity assay is utilized with CHO-K1 cells overexpressing human or rat HER receptors to determine potencies and selectivity of purified NRG4 compounds. CHO-K1 cell lines expressing the human or rat HER receptors are cultured with selection medium (DMEM-F12 3:1 with 5% FBS with 20 mM HEPES, 40 μg/mL L-Proline, 1× antibiotics, 12 μg/mL puromycin, 1 mg/mL Hygromycin B). On Day −1 (the day before phospho-ERK1/2 assay), cells are washed once with PBS, detached with enzyme free cell dissociation solution (GIBCO cat #13151-014), and resuspended in plating medium (DMEM-F12 3:1 with 20 mM HEPES, lx antibiotics, 0.2% FBS). Cells are plated in a 96-well Poly-D-Lysine coated plate (BD cat #354640) at 10,000 cells per 0.1 mL per well. Cells are cultured in a tissue culture incubator at 37° C. 5% CO2 overnight. On Day 1 (the day of pERK1/2 assay), plates are incubated at room temperature for 30 min. The culture media are removed followed by addition of 504, ligand at various concentrations diluted in PBS-20 mM HEPES-0.005% BSA. Native human NRG1 and NRG4 peptides are purchased from Reprokine (Tampa, Fla.). The stimulation time is 30 min (except for hHER2-4 1H6 line in which 15 min is used for stimulation). At the end of stimulation, ligands are removed and 704, Lysis buffer (made according to manufacturer's recipe, Perkin Elmer cat #ALSU-PERK-A10K) is added. Plates are incubated at room temperature for 10 min on plate shaker with 350 rpm agitation, then on ice for 1 hour without shaking. 304, of cell lysis is transferred to a 96-well white Optiplate (Perkin Elmer cat #6002290) for phospho-ERK1/2 assay. Briefly 7.5 μL acceptor beads are added to 30 μL lysis in Optiplate. The plate is covered with aluminum foil and incubated at room temperature for 1 hour on plate shaker with 350 rpm agitation. Then 7.5 μL donor beads are added and the plate is covered with aluminum foil and incubated at room temperature for 2 hours on plate shaker with 350 rpm agitation or at 4° C. for overnight (warm up plate at room temperature for 2 h before reading). Alpha signal data are obtained on an Envision instrument (Alpha Technology-compatible plate reader). Donor beads and acceptor beads are made according to assay protocol. The data shown are generated with either the AlphaScreen SureFire p-ERK1/2 (Thr202/Tyr204) assay kit (Cat #TGRES50k) or the AlphaLISA® SureFire® Ultra™ p-ERK 1/2 (Thr202/Tyr204) assay kit (Perkin Elmer cat #ALSU-PERK-A10K). The activity of the NRG1 peptide was similar in both types of assays. Raw data obtained from the Envision instrument is imported into GraphPad Prism software (version 7). The EC50 value is generated by a variable slope-four parameter dose response curve. The % of maximal NRG1 activity data are generated by expressing the average maximal raw data for the NRG4 compound over the average maximal raw data for the native human NRG1 per plate and multiplying by 100. Data are provided below in Tables 7-9. N values reflect number of independent assays run. […]

[1] = test system: rat model of heart failure with reduced ejection fraction (HFrEF); experiment: Rat MI model, captopril, Example 10 or combination, echocardiography; assay type: in vivo; parameters: Left Ventricle Diameter (end diastole): unit not given here
Description: A nonclinical efficacy pharmacology study is conducted in a rat model of heart failure with reduced ejection fraction (HFrEF) to evaluate cardiac function and structure changes after captopril treatment, Example 10 treatment or combination treatment.
The left coronary artery is permanently ligated. All rats are individually housed in a temperature and humidity controlled room and maintained on a 12 hour light/dark cycle. Two to three weeks after surgery, rats undergo transthoracic echocardiography for determination of ejection fraction (EF %) and left ventricle dimensions (LVD) using a Vevo 2100 ultrasound system. Rats are randomized across treatment groups according to EF % and LVD.
Measurements of EF % and LVD are expressed as mean values±standard error (SE). Statistical analysis is performed with JMP® 13 software (SAS Institute, Inc.; Cary, N.C.) and Dunnett's Test is used for statistical comparisons across treatment groups. Statistical significance is accepted at P<0.05.
Three weeks after MI surgery, animals are randomized to 2 treatment groups (Placebo or captopril, 2 g/L in drinking water, ad lib) according to EF % and LVD. Three weeks and four weeks after dosing starts, cardiac function (EF %) and structure (LVD) are evaluated by transthoracic echocardiography. Animals are further randomized to additional groups based on cardiac function (EF %) and structure (LVD) to the following groups: Placebo, Example 10, captopril and Example 10+captopril. Animals in the Example 10 groups receive a single injection on week 4 after the 2nd randomization. Cardiac function (EF %) and structure (LVD) are evaluated on week 5 and 6.

rats = experiment: Toxicology study in rats, cardiac tissue inspection; settings: single SC injection of 0.3 mg/kg
[2] = Plasma pharmacokinetics in rats (toxicology studies); settings: rat, in vivo, sc, 0.3 mg/kg
Description: Example 11 is administered in a single 3 mg/kg dose to male and female monkeys by SC bolus injection.

[3] = Week 4 (2nd randomization; before the single injection of Example 10)
[4] = Week 5 (single injection of Example 10 on week 4; captopril 2 g/L in drinking water)
[5] = Week 6 (single injection of Example 10 on week 4; captopril 2 g/L in drinking water)

Molecule	% Maximal NRG1 activity (rat HER2/HER4)	EC50 (rat HER2/HER4) [nM]	Ejection Fraction [1, 3] [%]	Left Ventricle Diameter (end diastole) [1, 3]	Ejection Fraction [1, 4]	Left Ventricle Diameter (end diastole) [1, 4]	Ejection Fraction [1, 5]	Left Ventricle Diameter (end diastole) [1, 5]	inspections of tissue (cardiac toxicity) (rats)	duration of detectable plasma concentrations [2] [h]
WT NRG1: wild type human NRG1; native peptide purchased from Reprokine in Tables 7-9; comparator in the screening assays of Tables 4 and 6	100%	0.29 ± 0.05								
Example 10: NRG4 D1G/V22Q/E44K, (GGGGS)3 linker, SEQ ID NO: 19, fused to IgG Fc dimer SEQ ID NO: 6 and 7 (protein) chain 1: GGGGSGGGGSGGGGSGHEEPCGPSHKSFCLNGGLCYQIPTIPSPFCRCVENYTGARCEKVFL chain 2: ECPPCPAPPVAGPSVFLFPPKPKDTLMISRTPEVTCVVVDVSHEDPEVQFNWYVDGVEVHNAKTKPREEQFNSTFRVVSVLTVVHQDWLNGKEYKCKVSNKGLPAPIEKTISKTKGQPREPQVYTLPPSREEMTKNQVSLWCLVKGFYPSDIAVEWESNGQPENNYKTTPPVLDSDGSFFLYSKLTVDKSRWQQGNVFSCSVMHEALHNHYTQKSLSLSPG chain 3: ECPPCPAPPVAGPSVFLFPPKPKDTLMISRTPEVTCVVVDVSHEDPEVQFNWYVDGVEVHNAKTKPREEQFNSTFRVVSVLTVVHQDWLNGKEYKCKVSNKGLPAPIEKTISKTKGQPREPQVYTLPPSREEMTKNQVSLSCAVKGFYPSDIAVEWESNGQPENNYKTTPPVLDSDGSFFLVSKLTVDKSRWQQGNVFSCSVMHEALHNHYTQKSLSLSPG	88 ± 7 (N = 2) %	0.12 ± 0.04	33.3	9.33	46.5* %	9.35	46.0* %	9.01	cardiac degeneration and necrosis	> 168
